Results on seven compounds are retold here after paper PMC8810680 (Nature chemical biology, 2021).

Assay [1] deals with recombinant 6X His-tagged GudB (B. subtilis). Put plainly: cryo-EM structure.
The target in the next assay is GudB6-GltA2B2 (Bacillus subtilis, UniProt O34399+P39812). Description: cryo-EM structure, […] A. The assay is classed as binding. The conditions noted are these: co-purified.
Assay [2] deals with glutamate dehydrogenase GudB (untagged, in B. subtilis NCIB 3610) (B. subtilis (endogenous in strain NCIB 3610)). Put plainly: cryo-EM structure.
Chain of glutamate dehydrogenase GudB (untagged, in B. subtilis NCIB 3610) (B. subtilis (endogenous in strain NCIB 3610)) (P50735 whole entry): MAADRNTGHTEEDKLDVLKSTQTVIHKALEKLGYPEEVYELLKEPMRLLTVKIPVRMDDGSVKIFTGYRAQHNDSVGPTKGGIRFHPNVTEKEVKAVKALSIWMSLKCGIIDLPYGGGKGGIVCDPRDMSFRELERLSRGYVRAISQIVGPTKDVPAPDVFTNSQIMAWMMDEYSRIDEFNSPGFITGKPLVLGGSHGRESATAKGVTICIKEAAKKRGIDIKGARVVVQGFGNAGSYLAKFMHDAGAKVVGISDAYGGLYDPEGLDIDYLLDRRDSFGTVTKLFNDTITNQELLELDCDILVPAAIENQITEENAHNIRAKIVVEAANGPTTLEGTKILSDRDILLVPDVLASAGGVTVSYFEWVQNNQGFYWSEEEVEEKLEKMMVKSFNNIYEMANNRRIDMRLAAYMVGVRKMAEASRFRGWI
Assay [3] deals with recombinant Strep-tagged GudB (B. subtilis). Put plainly: native MS.
Assay [4] deals with TwinStrep-tagged GltB (B. subtilis) (UniProt O34399). Description: mass photometry.
Chain of TwinStrep-tagged GltB (B. subtilis) (O34399 whole entry): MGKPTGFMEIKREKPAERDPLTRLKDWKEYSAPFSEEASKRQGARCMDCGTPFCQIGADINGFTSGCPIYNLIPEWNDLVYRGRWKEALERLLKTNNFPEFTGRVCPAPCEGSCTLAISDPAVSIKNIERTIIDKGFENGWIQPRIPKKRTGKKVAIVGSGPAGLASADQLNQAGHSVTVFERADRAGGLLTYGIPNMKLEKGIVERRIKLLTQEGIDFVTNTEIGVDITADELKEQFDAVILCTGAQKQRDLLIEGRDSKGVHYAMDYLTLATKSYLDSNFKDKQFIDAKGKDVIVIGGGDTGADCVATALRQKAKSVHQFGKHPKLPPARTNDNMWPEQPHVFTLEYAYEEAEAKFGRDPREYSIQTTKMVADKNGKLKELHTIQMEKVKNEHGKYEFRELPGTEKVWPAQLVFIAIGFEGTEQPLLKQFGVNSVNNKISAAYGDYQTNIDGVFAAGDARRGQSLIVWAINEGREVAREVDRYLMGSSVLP
In assay [5] the target is glutamate dehydrogenase GudB (untagged, in B. subtilis NCIB 3610) (B. subtilis (endogenous in strain NCIB 3610)). Description: native MS.
Assay [6] concerns the target recombinant 6X His-tagged GudB (B. subtilis). Put plainly: native MS.

Where “and” joins values, the source holds several entries; their conditions need not be identical. Identical values can stand only once.

As usually defined, the stoichiometry N is the number of molecules, sites or subunits per partner or assembly.

Chain of recombinant 6X His-tagged GudB (B. subtilis) (P50735 whole entry): as the sequence (P50735 whole entry) above
Chain of GudB6-GltA2B2 (P39812 22-1520): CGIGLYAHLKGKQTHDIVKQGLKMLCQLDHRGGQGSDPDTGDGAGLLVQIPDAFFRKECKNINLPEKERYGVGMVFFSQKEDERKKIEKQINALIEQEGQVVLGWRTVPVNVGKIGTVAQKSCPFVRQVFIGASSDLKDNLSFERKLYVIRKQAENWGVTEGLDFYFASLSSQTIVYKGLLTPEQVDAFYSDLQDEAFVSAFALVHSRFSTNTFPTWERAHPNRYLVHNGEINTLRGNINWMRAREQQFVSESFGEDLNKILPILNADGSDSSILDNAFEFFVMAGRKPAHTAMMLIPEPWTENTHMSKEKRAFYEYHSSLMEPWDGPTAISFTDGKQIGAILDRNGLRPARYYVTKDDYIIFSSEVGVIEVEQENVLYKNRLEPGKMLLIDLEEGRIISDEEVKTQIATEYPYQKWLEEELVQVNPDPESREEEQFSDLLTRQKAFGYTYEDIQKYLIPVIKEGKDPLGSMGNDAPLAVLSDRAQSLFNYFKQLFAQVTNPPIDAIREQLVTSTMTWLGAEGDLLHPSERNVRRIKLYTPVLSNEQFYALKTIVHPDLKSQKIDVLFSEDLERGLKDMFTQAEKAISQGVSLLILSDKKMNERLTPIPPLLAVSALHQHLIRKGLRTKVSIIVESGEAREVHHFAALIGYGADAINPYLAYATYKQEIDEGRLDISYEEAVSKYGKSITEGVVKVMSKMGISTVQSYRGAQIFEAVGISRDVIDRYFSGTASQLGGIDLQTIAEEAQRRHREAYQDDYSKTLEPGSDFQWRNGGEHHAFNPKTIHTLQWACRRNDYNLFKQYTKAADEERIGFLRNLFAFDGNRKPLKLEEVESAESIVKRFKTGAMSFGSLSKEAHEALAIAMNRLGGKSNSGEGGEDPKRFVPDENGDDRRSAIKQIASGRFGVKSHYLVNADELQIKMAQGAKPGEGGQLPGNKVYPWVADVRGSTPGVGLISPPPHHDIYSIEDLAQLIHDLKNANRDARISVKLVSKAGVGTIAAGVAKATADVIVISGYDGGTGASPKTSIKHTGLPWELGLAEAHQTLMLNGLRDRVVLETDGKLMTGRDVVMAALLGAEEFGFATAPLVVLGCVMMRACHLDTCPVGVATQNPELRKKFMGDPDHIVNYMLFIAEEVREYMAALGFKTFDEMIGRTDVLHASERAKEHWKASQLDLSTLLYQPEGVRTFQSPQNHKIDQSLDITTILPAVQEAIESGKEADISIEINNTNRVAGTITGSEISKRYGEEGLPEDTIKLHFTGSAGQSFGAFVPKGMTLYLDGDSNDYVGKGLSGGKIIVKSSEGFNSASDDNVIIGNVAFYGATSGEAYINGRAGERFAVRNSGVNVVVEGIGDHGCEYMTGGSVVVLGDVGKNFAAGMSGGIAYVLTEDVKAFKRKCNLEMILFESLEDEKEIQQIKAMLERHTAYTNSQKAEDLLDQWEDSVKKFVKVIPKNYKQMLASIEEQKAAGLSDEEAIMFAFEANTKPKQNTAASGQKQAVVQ
Chain of GudB6-GltA2B2 (O34399 whole entry): as the sequence (O34399 whole entry) above
Chain of GudB6-GltA2B2 (A0A0C3GZC9 1-424 partner): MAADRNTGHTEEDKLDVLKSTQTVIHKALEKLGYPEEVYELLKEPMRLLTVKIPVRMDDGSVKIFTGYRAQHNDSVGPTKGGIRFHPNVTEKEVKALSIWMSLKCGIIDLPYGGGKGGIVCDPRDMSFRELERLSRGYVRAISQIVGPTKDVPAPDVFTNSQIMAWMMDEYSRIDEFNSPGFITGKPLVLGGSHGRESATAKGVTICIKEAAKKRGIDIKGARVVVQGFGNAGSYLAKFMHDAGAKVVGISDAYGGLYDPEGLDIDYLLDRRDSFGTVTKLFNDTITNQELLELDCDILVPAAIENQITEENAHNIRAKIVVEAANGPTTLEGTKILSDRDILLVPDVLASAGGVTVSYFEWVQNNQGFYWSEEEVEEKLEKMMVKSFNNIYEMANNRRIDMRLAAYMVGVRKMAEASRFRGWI
Chain of recombinant Strep-tagged GudB (enzyme) (P50735 whole entry): as the sequence (P50735 whole entry) above
Chain of recombinant 6X His-tagged GudB (enzyme) (P50735 whole entry): as above
Chain of glutamate dehydrogenase GudB (untagged, in B. subtilis NCIB 3610) (enzyme) (P50735 whole entry): as above

recombinant 6X His-tagged GudB (enzyme): in assay [1], the stoichiometry N was 6.
Take `Cc1cc2nc3c(=O)[nH]c(=O)nc-3n(C[C@H](O)[C@H](O)[C@H](O)COP(=O)(O)OP(=O)(O)OC[C@H]3O[C@@H](n4cnc5c(N)ncnc54)[C@H](O)[C@@H]3O)c2cc1C` [FAD]: the “cryo-EM structure, 2.4 A” value at GudB6-GltA2B2 (listed among GltAB cofactors in the figure legend only) is “The co-factors in GltAB: FAD, two 4Fe-4S clusters (SF4), 3Fe-4S cluster (F3S) and FMN”.
For “glutamate dehydrogenase GudB (untagged, in B. subtilis NCIB 3610) (enzyme)”, the stoichiometry N in assay [2] amounted to 6.
As for `[S]12[Fe]3[S]4[Fe]1[S]1[Fe]2[S]3[Fe]41` [4Fe-4S cluster], at GudB6-GltA2B2 (two clusters, site in GltB), the “cryo-EM structure, 2.4 A” value was “unambiguous assignment of two 4Fe-4S clusters in GltB”.
As for `Cc1cc2nc3c(=O)[nH]c(=O)nc-3n(C[C@H](O)[C@H](O)[C@H](O)COP(=O)(O)O)c2cc1C` [FMN], the “cryo-EM structure, 2.4 A” value at GudB6-GltA2B2 (site in GltA) is “a 3Fe-4S clusters and FMN in GltA”.
Consider recombinant Strep-tagged GudB (enzyme), for which, in assay [3], the stoichiometry N stood at 6.
As for “glutamate synthase subunit GltA (from UniProt P39812 1-1520) (enzyme)”, in assay [4], the percent of counts as GltAB, no ligand is 5 % of counts. Moreover, the percent of counts as GltAB, with AKG in assay [4] is 12 % of counts. Also, the percent of counts as GltAB, with AKG and NADPH in assay [4] was 16 % of counts. For the same compound, the stoichiometry N (GltAB heterodimers per GudB hexamer) in assay [5] is 6; in assay [6] it was 3 and 6; in assay [2], 6; in assay [1], 2 to 4.
